Tests used:
[1] = system: phospho-myelin basic protein; assay: In vitro phosphatase assay using phospho-myelin basic protein; format: biochemical
Protocol: In vitro phosphatase assay using phospho-myelin basic protein was performed according to manufacturer's protocol (New England Biolab. Beverly, Mass.). To examine tyrosine phosphatase activity of BSU 1, 20 mM p-nitrophenyl phosphate was incubated with MBP-BSD) in 50 uL of reaction buffer (50 mM Tris. pH 7.2, 20 mM NaCl, 5 mM DTT, 10 RIM MgCl2). The reaction was quenched by the addition of 100 uL of 0.5 M NaOH after incubation at 30° C. for 1 hr. p-Nitrophenol production was determined by measuring A405 (extinction coefficient, e=1.78×104 M-tCm J).

BIN2 = target: T1, BIN2 (Arabidopsis thaliana, UniProt Q39011); assay: In vitro BIN2 inhibition assay (BIN2 phosphorylation of BZR1); format: biochemical
T1 construct: made in house; host or cells: E. coli
T1 sequence (Q39011 1-380): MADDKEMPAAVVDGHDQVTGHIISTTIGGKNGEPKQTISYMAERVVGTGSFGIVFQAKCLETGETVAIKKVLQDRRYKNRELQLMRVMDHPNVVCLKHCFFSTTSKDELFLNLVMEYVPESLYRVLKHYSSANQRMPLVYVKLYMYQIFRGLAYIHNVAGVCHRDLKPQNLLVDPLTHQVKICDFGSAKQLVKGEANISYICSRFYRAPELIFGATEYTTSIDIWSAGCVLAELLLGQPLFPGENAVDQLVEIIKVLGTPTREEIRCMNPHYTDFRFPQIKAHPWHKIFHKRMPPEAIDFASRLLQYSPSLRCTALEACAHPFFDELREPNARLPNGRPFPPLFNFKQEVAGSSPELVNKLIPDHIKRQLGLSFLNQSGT
Protocol: In vitro BIN2 inhibition assays were performed by 3 hrs co-incubation of MBP-BZR1, GST BIN2, GST BSU1 and ^32P-γATP or pre-incubation of GST-BIN2 with GST-BSU1 for various time followed by adding MBP-BZR1 and 32P-γATP. The examine activities of partial BSU1, N-terminal Kelch (1-363th amino acid) and C-terminal phosphatase (364-793th amino acid) region were used. GST, GST-BSU1, GSTBSU1-Ketch and GST-BSU1-phosphatase were pre-incubated with GST-BIN2 for 1 hr, and further incubated with MBP-BZR1 and ^32P-γATP for 3 hrs.
To test activities of BSU1-YFP, anti-GFP antibody-Protein A beads were used to immunoprecipitate BSU1-YFP from extracts of BSU1-YFP transgenic plants, and non-transgenic wild type plants were used as control. The beads were incubated with GST-BIN2 or GST bin2-1 for 1 hr, and then the beads were removed. The BSU1-treated GST-BIN2 or GST-bin2-1 was further incubated with MBP-BZR1 and ^32P-γATP for 3 hrs.

[2] = system: phosphorylated BZR1 and BZR2; assay: In vitro dephosphorylation of pre-phosphorylated BZR1 and BZR2; format: biochemical, Arabidopsis; conditions: added after BIN2 and ATP were removed
Protocol: MBP-BZR1 and GST-BIN2 proteins were expressed and purified from E. coli and maltose or glutathione was removed from the proteins by ultrafiltration using Centricon 30 (Amicon Ultra, Millipore, Billerica, Mass.). To prepare fully phosphorylated BZR1 proteins, MBP-BZR1 protein was incubated with GST BIN2 as 1 to 1 ratio in the kinase buffer containing 100 μM ATP at 30° C. overnight. The protein mixture was incubated with glutathione Sepharose beads to remove GSTBIN2, then with amylose beads to purify MBP-pBZR1. Partially phosphorylated 32Plabeled pBZR1 and pBZR2 were prepared by the same method but MBP-BZR1 or MBP-BZR2 was incubated with GST BIN2 at a 15 to 1 ratio for 3 hrs in the presence of […] 32P-γATP. For dephosphorylation, GST-BSU1 was incubated with fully phosphorylated MBP-pBZR1 and 32P-MBP-pBZR1 or 32 P-MBP-pBZR2 for 12 or 16 Ins, […]

PP1 = target: T2, PP1 (Homo sapiens, UniProt P36873); assay: Inhibition of PP1 activity on BIN2; format: biochemical, mammalian
T2 construct: made in house; host or cells: E. coli
Protocol: It was next examined whether the mammalian homolog to BSU1, PP1, would dephosphorylate BIN2. A GST-tagged BIN2 was isolated from cells and incubated with PP1 purified from E. coli cells expressing the phosphatase.

T2 sequence (P36873 whole entry): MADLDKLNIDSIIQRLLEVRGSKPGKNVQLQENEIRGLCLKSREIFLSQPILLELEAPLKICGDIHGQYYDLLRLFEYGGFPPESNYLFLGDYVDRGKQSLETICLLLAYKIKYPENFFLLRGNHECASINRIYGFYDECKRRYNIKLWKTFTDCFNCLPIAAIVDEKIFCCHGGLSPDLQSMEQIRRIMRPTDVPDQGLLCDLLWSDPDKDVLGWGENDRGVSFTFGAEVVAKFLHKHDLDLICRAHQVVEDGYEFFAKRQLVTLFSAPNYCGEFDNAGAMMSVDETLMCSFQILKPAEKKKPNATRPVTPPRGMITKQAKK

B1: BSL1: closest homolog of BSU1 (SEQ ID NO: 28) (protein, listed as Arabidopsis thaliana)
chain: MGSKPWLHPAPQYKTLETFWDDEDDAPGPRCAHTLTAVAATKTHGPRLILFGGATAIEGGSSSVPGIRLAGVTNTVHSYDILTRKWTRLKPAGEPPSPRAAHAAAAVGTMVVFQGGIGPAGHSTDDLYVLDMTNDKFKWHRVVVQGDGPGPRYGHVMDLVSQRYLVTVTGNDGKRALSDAWALDTAQKPYVWQRLNPDGDRPSARMYASGSARSDGMFLLCGGRDTLGAPLGDAYGLLMHRNGQWEWTLAPGVAPSPRYQHAAVFVGARLHVSGGVLRGGRVIDAEASVAVLDTAAGVWLDRNGQVTSARGSKGQIDQDPSFELMRRCRHGAASVGIRIYVHGGLRGDVLLDDFLVAENSTFQSDISSPLLASDRTQQSSTPRFSYAARPPSGSEPSFSMSEGLSLDENSLEKLTEASAAEAEVASSVWRAAQLGAGTLDEEPSTSDASSPIVESTTDGTANEGDVRLHPRAVVVAKETVGSLGGMVRQLSLDQFQNESRRMVPMNNSDVPQPTKKFTRQKSPQGLHKKVIAALLRPRNWKPPGNRKFFLDSYEVGELCYAAEQIFMHEQTVLQLKAPIKVFGDLHGQFGDLMRLFDEYGFPSTAGDITYIDYLFLGDYVDRGQHSLETITLLLALKIEYPENVHLIRGNHEAADINALFGFRLECIERMGENDGIWAWTRFNQLFNYLPLAALIENKIICMHGGIGRSISTVEQIEKIERPITMDAGSLVLMDLLWSDPTENDSIEGLRPNARGPGLVTFGPDRVTEFCKRNKLQLIIRAHECVMDGFERFAQGQLITLFSATNYCGTANNAGAILVVGRGLVIVPKLIHPLPPPILSPENSPEHSGDDAWMQELNIQRPPTPTRGRPQPDFDRSSLAYI
phosphatase activity on phosphorylated myelin basic protein ([1]; protein purified from E.coli, metal ions 1 mM): showed manganese-dependent phosphatase activities
BIN2 phosphorylation of BZR1, co-incubation (BIN2; co-incubated with BIN2 and BZR1, 32P-γATP, 3 hrs): inhibit B1N2 phosphorylation of BZR1 and BZR2
dephosphorylation of pre-phosphorylated BZR1 / BZR2 [2]: do not dephosphorylate phosphorylated BZR1 and BZR2

B2: Kelch repeat domain: N-terminal Kelch (1-363th amino acid) region of BSU1 (protein)
chain: MAPDQSYQYPSPSYESIQTFYDTDEDWPGPRCGHTLTAVFVNNSHQLILFGGSTTAVANHNSSLPEISLDGVTNSVHSFDVLTRKWTRLNPIGDVPSPRACHAAALYGTLILIQGGIGPSGPSDGDVYMLDMTNNKWIKFLVGGETPSPRYGHVMDIAAQRWLVIFSGNNGNEILDDTWALDTRGPFSWDRLNPSGNQPSGRMYASGSSREDGIFLLCGGIDHSGVTLGDTYGLKMDSDNVWTPVPAVAPSPRYQHTAVFGGSKLHVIGGILNRARLIDGEAVVAVLDTETGEWVDTNQPETSASGANRQNQYQLMRRCHHAAASFGSHLYVHGGIREDVLLDDLLVAETSQSSSPEPEEDNP
modifications: left off: a dimerising Fc or GST
notes: N-terminal Kelch (1-363th amino acid) region of BSU1
BIN2 phosphorylation of BZR1, pre-incubation (BIN2; pre-incubated with BIN2 before adding BZR1): showed no effect

B3: BSU1-D5ION: mutant BSU1, Asp510 to Asn, with reduced phosphatase activity (protein, UniProt Q9LR78 1-793, looked up, variant D510N)
Serine/threonine-protein …: MAPDQSYQYPSPSYESIQTFYDTDEDWPGPRCGHTLTAVFVNNSHQLILFGGSTTAVANHNSSLPEISLDGVTNSVHSFDVLTRKWTRLNPIGDVPSPRACHAAALYGTLILIQGGIGPSGPSDGDVYMLDMTNNKWIKFLVGGETPSPRYGHVMDIAAQRWLVIFSGNNGNEILDDTWALDTRGPFSWDRLNPSGNQPSGRMYASGSSREDGIFLLCGGIDHSGVTLGDTYGLKMDSDNVWTPVPAVAPSPRYQHTAVFGGSKLHVIGGILNRARLIDGEAVVAVLDTETGEWVDTNQPETSASGANRQNQYQLMRRCHHAAASFGSHLYVHGGIREDVLLDDLLVAETSQSSSPEPEEDNPDNYMLLDDYLMDEPKPLSSEPEASSFIMRSTSEIAMDRLAEAHNLPTIENAFYDSAIEGYVPLQHGAETVGNRGGLVRTASLDQSTQDLHKKVISTLLRPKTWTPPANRDFFLSYLEVKHLCDEVEKIFMNEPTLLQLKVPIKVFGNIHGQYGDLMRLFHEYGHPSVEGDITHIDYLFLGDYVDRGQHSLEIIMLLFALKIEYPKNIHLIRGNHESLAMNRIYGFLTECEERMGESYGFEAWLKINQVFDYLPLAALLEKKVLCVHGGIGRAVTIEEIENIERPAFPDTGSMVLKDILWSDPTMNDTVLGIVDNARGEGVVSFGPDIVKAFLERNGLEMILRAHECVIDGFERFADGRLITVFSATNYCGTAQNAGAILVIGRDMVIYPKLIHPHPPPISSSEEDYTDKAWMQELNIEMPPTPARGESSE
phosphatase activity of the wild type protein ([1]; phospho-myelin basic proteins as a substrate): about 15%

B4: PP2: PP1 inhibitor, protein phosphatase inhibitor 2 (protein, UniProt P41236 2-205, looked up)
Protein phosphatase inhibitor …: AASTASHRPIKGILKNKTSTTSSMVASAEQPRGNVDEELSKKSQKWDEMNILATYHPADKDYGLMKIDEPSTPYHSMMGDDEDACSDTEATEAMAPDILARKLAAAEGLEPKYRIQEQESSGEEDSDLSPEEREKKRQFEMKRKLHYNEGLNIKLARQLISKDLHDDDEDEEMLETADGESMNTEESNQGSTPSDQQQNKLRSS
enzymatic activity of PP1 on BIN2 (PP1): inhibited the enzymatic activity of the PP1 phosphatase on BIN2

— patent publication US20120322150A1, “Mechanism and Method for Regulating Glycogen Synthase Kinase 3 (GSK3)-Related Kinases” (CARNEGIE INSTITUTION OF WASHINGTON, priority 2009, published 2012)
